The results in this text go back to patent US20190022241A1 (AbbVie / Abbott, published 2019).

Numbering of substitutions follows the chain as printed.

Experiment [1] addresses T1, SEZ6 Sushi Domain 2 (amino acids 511-572) on yeast (human, UniProt Q53EL9 530-591).
T1 construct: yeast display
T1 sequence: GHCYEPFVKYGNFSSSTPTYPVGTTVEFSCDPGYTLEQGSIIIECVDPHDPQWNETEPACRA
In words: yeast display, flow cytometry.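 Note: antibody binding to individual SEZ6 domains displayed on yeast, measured by flow cytometry, antibody at 50 nM purified or hybridoma supernatant diluted 1:2, 90 min on ice.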

The target in experiment [2] is T2, human SEZ6 on HEK-293T cells (human, UniProt Q53EL9 20-994).
T2 construct: also called h293T-HuSEZ6
In words: immunohistochemistry.

For experiment [3], the target named is T3, SEZ6 Sushi Domain 4 (amino acids 750-813) on yeast (human, UniProt Q53EL9 769-832).
T3 construct: yeast display
As to the kind of experiment: yeast display, flow cytometry. (In general: A flow cytometer gives signals particle by particle.)

The target of a further experiment is T4, hSEZ6-ECD-His (human, UniProt Q53EL9 20-925).
T4 construct: the whole entry is named; also called recombinant SEZ6-His; human recombinant SEZ6-His
As to the kind of experiment: immunohistochemistry, signal competed by soluble antigen.

Experiment [4] concerns the target T5, SEZ6 Sushi Domain 3 (amino acids 690-748) on yeast (human, UniProt Q53EL9 709-767).
T5 construct: yeast display
As to the kind of experiment: yeast display, flow cytometry.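 Note: antibody binding to individual SEZ6 domains displayed on yeast, measured by flow cytometry, antibody at 50 nM purified or hybridoma supernatant diluted 1:2, 90 min on ice.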

For experiment [5], the target named is T6, SEZ6 CUB Domain 1 (aa 397-508) on yeast (human, UniProt Q53EL9 416-527).
T6 construct: yeast display
T6 sequence: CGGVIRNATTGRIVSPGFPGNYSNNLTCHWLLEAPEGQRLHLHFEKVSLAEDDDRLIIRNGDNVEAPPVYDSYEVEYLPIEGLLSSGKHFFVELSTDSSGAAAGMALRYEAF
In words: yeast display, flow cytometry.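 Note: antibody binding to individual SEZ6 domains displayed on yeast, measured by flow cytometry, antibody at 50 nM purified or hybridoma supernatant diluted 1:2, 90 min on ice.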

Experiment [6] deals with T7, SEZ6 Sushi Domain 5 (amino acids 817-878) on yeast (human, UniProt Q53EL9 836-897).
T7 construct: yeast display
In words: yeast display, flow cytometry.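 Note: antibody binding to individual SEZ6 domains displayed on yeast, measured by flow cytometry, antibody at 50 nM purified or hybridoma supernatant diluted 1:2, 90 min on ice.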

B1: SC17.90 (antibody, V domains shown)
VL: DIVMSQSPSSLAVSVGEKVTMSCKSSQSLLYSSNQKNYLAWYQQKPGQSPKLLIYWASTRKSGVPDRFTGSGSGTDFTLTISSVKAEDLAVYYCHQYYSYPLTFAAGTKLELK
VH: QVQLQQPGSVLVRPGASVKLSCKASGYTFTSYWMHWVKQRPGQGLEWIGEIHPNNGSTNYNEKFKGKATLTVDTSSSTAYVDLSSLTSEDSAVYYCARWTLFTYWGQGTLVTVSA
notes: murine mAb; also called SC17.155 (duplicate)
Consider B1, for which the binding result in experiment [1] is on record as “binds”.

B2: SC17.140 (antibody, V domains shown)
VH: EVQLQQSGPELMKPGASVKMSCKASGYTFTDYNMHWVKQNQGKSLEWIGEINPNTGGTGYNQKFKGKATLTVDKFSSTAFIELRSLTSEDSAIYYCTRGGYDHYWYFDVWGAGTTVTVSS
VL: QIVLTQSPAIMSASPGEKVTMTCSASSSVSYMHWYQQKSGTSPKRWIYDTSKLASGVPARFSGSGSGTSYSLTISSMEAEDAATYYCQQWSSTPPTFGSGTKLEIK
notes: murine mAb
Turning to B2, the binding result (in experiment [2]; in experiment [3]; with hSEZ6-ECD-His) was “binds” in each case.

B3: SC17.72 (antibody, V domains shown)
VH: EVQLVESGGGLVKPGGSLKLSCAASGFTFSSYGMSWVRQTPEKRLEWVAAINSNGGSTYYPDTVKGRLTISRDNGKNTLYLQMSSLRSEDTALYYCVRDDGYYVFFAYWGQGTLVTVSA
VL: DIQMTQTTSSLSASLGDRVTISCSASQGISNYLNWYQQKPDGTVKLLIYYTSSLHSGVPSKFSGSGSGTDYSLTISNLEPEDIATYYCQQYSKLPYTFGGGTKLEIK
notes: murine mAb
Regarding B3, in experiment [4], the binding result is “binds”.

B4: SC17.95 (antibody, V domains shown)
VH: EVELQQSGPELVKPGASVKISCKTSGNTYTEYTMQWVKLSHGKSLEWIGGINPNNGITSYNQKFKGKATLTVDKSSSTAYMELRSLKSEDSAVYYCARAGLGNYVWAMDYWGQGASVTVSS
VL: B3 VL with S30N, K45T, K61R, Y96W
notes: murine mAb
For B4, in experiment [4], the binding result is reported as “binds”.

B5: SC17.76 (antibody, V domains shown)
VH: EVQLVESGGDLVKPGGSLKLSCVASGFTFSSYGMSWVRQTPDKRLEWVATISSGGTFTYYPDSVKGRFTVSRDNAKNTLYLQMSSLKSEDTAMYYCSRHGWGWGQGTLVTVSA
VL: DIVITQDELSNPVTSGESVSISCRSSKSLLYKDGKTYLNWFLQRPGQSPQLLIYLMSTRASGVSDRFSGSGSGTDFTLEISRVKAEDVGVYYCQQLVEYPRTFGGGTKLEIK
notes: murine mAb
Take B5: the binding result in experiment [5] is reported as “binds”.

B6: SC17.122 (antibody, V domains shown)
VH: B5 VH with Q3H, V23A, F57Y, V70I
VL: B5 VL with E8D
notes: murine mAb
Regarding B6, in experiment [5], the binding result is “binds”.

B7: SC17.74 (antibody, V domains shown)
VH: QVQLKQSGPGLVAPSQSLSITCTVSGFSLTSYGVDWVRQSPGKGLEWLGVIWGGGSTNYNSALKSRLSITKDNSKSQVFLKMNSLQTDDTAMYYCASGDYDGSLWFAYWGQGTLVTVSA
VL: DIQMTQSSSYLSVSLGGRVTITCKASDHINNWLAWYQQKPGNAPRLLISGATSLETGVPSRFSGSGSGKDYTLSITSLQTEDVATYYCQQYWSTPPTFGAGTKLELK
notes: murine mAb
For the molecule B7, the binding result in experiment [6] is given as “binds”.
